B1: Cy3-labeled full-length myosin VI (natural protein, human, UniProt Q9UM54 1-1294, looked up)
chain: MEDGKPVWAPHPTDGFQMGNIVDIGPDSLTIEPLNQKGKTFLALINQVFPAEEDSKKDVEDNCSLMYLNEATLLHNIKVRYSKDRIYTYVANILIAVNPYFDIPKIYSSEAIKSYQGKSLGTRPPHVFAIADKAFRDMKVLKMSQSIIVSGESGAGKTENTKFVLRYLTESYGTGQDIDDRIVEANPLLEAFGNAKTVRNNNSSRFGKFVEIHFNEKSSVVGGFVSHYLLEKSRICVQGKEERNYHIFYRLCAGASEDIREKLHLSSPDNFRYLNRGCTRYFANKETDKQILQNRKSPEYLKAGSMKDPLLDDHGDFIRMCTAMKKIGLDDEEKLDLFRVVAGVLHLGNIDFEEAGSTSGGCNLKNKSAQSLEYCAELLGLDQDDLRVSLTTRVMLTTAGGTKGTVIKVPLKVEQANNARDALAKTVYSHLFDHVVNRVNQCFPFETSSYFIGVLDIAGFEYFEHNSFEQFCINYCNEKLQQFFNERILKEEQELYQKEGLGVNEVHYVDNQDCIDLIEAKLVGILDILDEENRLPQPSDQHFTSAVHQKHKDHFRLTIPRKSKLAVHRNIRDDEGFIIRHFAGAVCYETTQFVEKNNDALHMSLESLICESRDKFIRELFESSTNNNKDTKQKAGKLSFISVGNKFKTQLNLLLDKLRSTGASFIRCIKPNLKMTSHHFEGAQILSQLQCSGMVSVLDLMQGGYPSRASFHELYNMYKKYMPDKLARLDPRLFCKALFKALGLNENDYKFGLTKVFFRPGKFAEFDQIMKSDPDHLAELVKRVNHWLTCSRWKKVQWCSLSVIKLKNKIKYRAEACIKMQKTIRMWLCKRRHKPRIDGLVKVGTLKKRLDKFNEVVSVLKDGKPEMNKQIKNLEISIDTLMAKIKSTMMTQEQIQKEYDALVKSSEELLSALQKKKQQEEEAERLRRIQEEMEKERKRREEDEKRRRKEEEERRMKLEMEAKRKQEEEERKKREDDEKRIQAEVEAQLARQKEEESQQQAVLEQERRDRELALRIAQSEAELISDEAQADLALRRSLDSYPVSKNDGTRPKMTPEQMAKEMSEFLSRGPAVLATKAAAGTKKYDLSKWKYAELRDTINTSCDIELLAACREEFHRRLKVYHAWKSKNKKRNTETEQRAPKSVTDYDFAPFLNNSPQQNPAAQIPARQREIEMNRQQRFFRIPFIRPADQYKDPQSKKKGWWYAHFDGPWIARQMELHPDKPPILLVAGKDDMEMCELNLEETGLTRKRGAEILPRQFEEIWERCGGIQYLQNAIESRQARPTYATAMLQSLLK
modifications: Cy3 label
notes: Myosin VI, human, the isoform containing both the long insert (LI) and short insert (SI); probably Myosin VI FL-SNAP (C-terminal SNAP, FLAG and 6X-His tags); Assay buffers held 10 uM calmodulin; The surface gliding assays used dark myosin VI FL-FLAG; also called Cy3-myosin VI; myosin VI FL
B2: Dab2 myosin interacting region (MIR) with C-terminal eGFP (domain or fragment, human, UniProt P98082 675-713, looked up)
chain: SSGTLSAFASYFNSKVGIPQENADHDDFDANQLLNKINE
notes: Dab2, human, a.a; fluorophore joined through a flexible (Gly-Ser-Gly) x 2 repeat; Held on DNA nanotubes or surfaces through a GFP nanobody (a tool); also called Dab2-MIR-GFP; GFP-tagged Dab2 MIR; not shown: eGFP, C-terminal, kept

In one assay the target is myosin VI CBD (UniProt Q64331). The settings on record: cited from earlier work.
Assay [1] concerns the target B2. The assay can be described thus: single-molecule TIRF binding assay; adaptor-GFP held through GFP nanobody-SNAP on DNA nanotubes; Cy3-labeled myosin VI at 50 pM in AB.BSA.Cam; 20 Hz for 3 min; bound and rebinding times fitted to a single-exponential decay. The settings on record: both partners purified.
In assay [2] the target is B1. Described as above. The settings on record: both partners purified.
Assay [3] deals with T1, Myosin VI cargo-binding domain (CBD) with C-terminal mCerulean (human, UniProt Q9UM54 991-1294, C-terminal mCerulean omitted. Limits are those printed for the Kd FRET assay (CBD 991-1294, LI+SI isoform of 1294 aa); the construct list instead gives 1030-1284.).
T1 chain: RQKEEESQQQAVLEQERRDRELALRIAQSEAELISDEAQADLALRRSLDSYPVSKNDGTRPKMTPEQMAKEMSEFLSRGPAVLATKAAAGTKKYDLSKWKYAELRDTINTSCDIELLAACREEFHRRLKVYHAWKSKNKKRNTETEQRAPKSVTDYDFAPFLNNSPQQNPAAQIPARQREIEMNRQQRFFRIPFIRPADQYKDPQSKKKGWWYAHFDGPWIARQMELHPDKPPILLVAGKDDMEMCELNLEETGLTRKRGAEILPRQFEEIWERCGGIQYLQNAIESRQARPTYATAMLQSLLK
The assay can be described thus: FRET or BRET; bimolecular FRET titration in solution; CBD-mCer held constant at 30 nM, increasing DAB2-MIR-mCit titrated in; excitation 430 nm, cross-excitation spectra subtracted. The settings on record: both partners purified. (Bioluminescence resonance energy transfer reports proximity on the nanometre scale.)

Ends that are not written are not given here.

myosin VI CBD, sequence (Q64331 1137-1262): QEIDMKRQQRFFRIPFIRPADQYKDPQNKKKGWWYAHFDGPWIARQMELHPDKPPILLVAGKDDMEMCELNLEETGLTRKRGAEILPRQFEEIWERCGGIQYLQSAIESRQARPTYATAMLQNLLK

As for Dab2 MIR (from UniProt P98082), the Kd (usually the free concentration of one partner at which half of the binding sites on the other are occupied at equilibrium, for simple one-to-one binding) with myosin VI CBD was 500 nM.
Consider B1, for which the “half-life of the interaction” value in assay [1] is about 1.2 s.
As for B2, the koff (as a rule, the first-order rate constant of dissociation) in assay [2] came to 0.91 s⁻¹.

B3: Dab2 myosin interacting region (MIR) with C-terminal mCitrine (domain or fragment, human, UniProt P98082 675-713, looked up)
chain: SSGTLSAFASYFNSKVGIPQENADHDDFDANQLLNKINE-mCitrine
notes: Dab2, human, a.a; fluorophore joined through a flexible (Gly-Ser-Gly) x 2 repeat; Cloned into pBiex1; also called DAB2-MIR-mCit; mCit-MIR; not shown: mCitrine, C-terminal, kept
In assay [3], B3 returned a Kd of about 184 nM.

The values are drawn from article PMC7948593, “Dynamic multimerization of Dab2–Myosin VI complexes regulates cargo processivity while minimizing cortical actin reorganization” (The Journal of Biological Chemistry, 2021).
